# Target: T1, sHdrR-trunc (Hyphomicrobium denitrificans XT) (UniProt D8JT17)
# T1 sequence: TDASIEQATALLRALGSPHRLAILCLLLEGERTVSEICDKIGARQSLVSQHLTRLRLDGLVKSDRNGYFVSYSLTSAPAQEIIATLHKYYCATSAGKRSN
# Assay: EMSA
# Conditions: 10 mM Tris-HCl, 50 mM KCl, 1 mM DTT, pH 8.0 (1x of 10x buffer), about 7% glycerol; 20 min RT then 30 min at 30 C with 17 nM DNA; 6% native PAGE, 0.25x TBE, 4 C
row,Sequence,binding
1,CGGCCCTCTGAGAAAAGACGCACACGTCGCGCCAAAAACATATGAACATTCGCATGATGGAATATAACAGCCCTGCCGATCGCACAAGGCTCGCTTTAAACGCGGACGCGTCTTCGCAGCGCACACGCATGCGCTGGACGTCCGATCATGTGAAAATTGGGCTGAAGACTCGCTCTA (double strand) [upstream of lipS1],binds
2,GGGTCACCAAATTCTGCAGGTCTCAATGCGAATGCGAGGCTGCTCCAGCTAGACGAAAAACAAGGAACGTTGCAATAGATAATTCACATATGATAATTTTCATATGTGTTATAGGATGAACGTTATCGCAGCTTCCGGGAGAGATGGCGTGAT (double strand) [soxA-soxY intergenic region],binds
3,TCGACAGCTTGCGGAAATCCGCAATCGAGATCGAAGCCATCGATCGTATTCGAATAGCACGTTCAGCTTCTGCGGAAGCGAACAACGCAACCGGCGCCAAGAGATAAATCTACATCGATCGTCGCGCCGGATGCGTTCACGTTGCCAAGGAATTCCTCACCGGCGGAGCCGTGGAATT (double strand),no binding
4,TGCCACCTCCCCGATATGCGTGGCTTTTGTTGTTTTGCCACTTCAGTTCTTGTGTAACTTCCTCTTTAGAACCAGTCAATATTACATTCGCATGTTTGAATATTCCATTTTTCTATATGTTCATCGAATTGGAAAAGTTATTCAAATATATCGCGATCGATTGATCGGCGAAGTC (double strand) [upstream of dsrE3C],binds

# Source: publication PMC12423496
